± gives the standard error. Fewer inactive variants are shown than the library holds.
B1: glmS ribozyme (parent)
chain: AUAAAAGCGCCAGAACUACAGAAAUGUAGUUGACGAGGAGGAGGUUUAUCGAAUUUUCGGCGGAUGCCUCCAAA

Variants of: B1
Experiment: self-cleavage kobs at 2500 uM GlcN6P; higher = faster cleavage; RNA array
Details: with glucosamine-6-phosphate
Outline: (§1)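 Barcoded ribozyme variants were transcribed in situ on sequenced MiSeq chips by E. coli RNA polymerase. At 37 °C, a hybridised Cy3 probe tracked them while glucosamine-6-phosphate (40 μM to 10 mM) in HEPES/KCl/Mg(OAc)2 buffer flowed in and tiles were imaged over ~14 h. Per-tile medians of signals normalised to baseline and to non-cleaving reference variants were fit to one- or two-exponential decays, giving kobs. kcat and KM came from weighted Michaelis–Menten fits across concentrations.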

Variant | self-cleavage kobs at 2500 uM GlcN6P
AUAAAAGCGCCAGAACUACAGAAAUGUAGUUGACGUGGAGGGGGUUUAGCGAAUUCUCGGCGGAUUCCUCUAAA [A36U A42G U49G U56C G66U C71U] | < 1e-05 s⁻¹
AUAAAAGCGCCAGACCUACAGAAAUGUAGCUGACGAGGAGGAGGUUUAUCGAAUUUUCGGCGGAUGCGUCCAAA [A15C U30C C68G] | 0.000192 ± 6.4e-05 s⁻¹
AUAAAAGCGCCAGAACUACAGAAAUGUAGUGGACGAGCAGGAUGUUACUCGAAUUUUCGGCGGAUGCCUCCAAA [U31G G38C G43U U47A A48C] | < 1e-05 s⁻¹
AUAAAAGCGCCAGAACUACAGAAAUGUAGUUGACGAGGAGGAGGAUUAUCGUAUUUUCGGCGGAUGCCUCUAAA [U45A A52U C71U] | 0.000244 ± 9.4e-05 s⁻¹
AUAAAAGCGCCAGAAUUACAGAAAUGUAAUUGACGAGGAGUAGGUUUAUCUAAUUUUCGGCGGAUGCCUCCAAA [C16U G29A G41U G51U] | < 1e-05 s⁻¹
AUAAAAGCGCCAGAACUACAGAAAUGUACUUGACUAGGAUGAGGUUUAUCGAAUUUUCGGCGGAUGCCUCCAAA [G29C G35U G40U] | < 1e-05 s⁻¹
AUAAAAGCGGCUGAACUACAGAAAUGUAGUUGACGAGGAGGAGGUUUAUGGAAUUUUCGGCGGAUGCCUCCAAA [C10G A12U C50G] | 0.000103 ± 2.4e-05 s⁻¹
AUAAAAGCGCCAGAUCUACAGAAAUGUAGUAGACGAGGAGGAGGUUUAUCGAAUUUUCGGCGGAUGCCUACAAA [A15U U31A C70A] | 6.54e-05 ± 2.7e-05 s⁻¹
AUAAAAGCGCCAGAACUACAGAAAUGUAGCUGACGAGGAGGAGGAUUAUCGAAUAUUCGGCGGAUGUCUCCAAA [U30C U45A U55A C67U] | 0.00196 ± 0.00072 s⁻¹
AUAAAAGCGCCAGACCUACAGAAAUGUAGUCGACGAGGAGGAGGUUUAUCGAAUUUUCGGCGGAUGCCUCAAAA [A15C U31C C71A] | 0.000185 ± 3.9e-05 s⁻¹
AUAAAAGCGCCAGAACUACAGAAAUGUAGAUGACGAGGAGGAGGUUUAUCGAAUUUUCGGCGGAUGCGUCCAAA [U30A C68G] | 7.09e-05 ± 1.5e-05 s⁻¹
AUAAAAGCGCCAGAACUACAGAAAUGUAGUUGACGAGGACGAUGUUUAUCGAAUUAUCGGCGGAUGCCUCCAAA [G40C G43U U56A] | < 1e-05 s⁻¹
AUAAAAGGGCAAGAACUACAGAAAUGUAGUUGCCGAGGAGGAGGUUUAUCGAAUUUUCGGCGGAUGCCUCCAAA [C8G C11A A33C] | < 1e-05 s⁻¹
AUAAAAGCGCCAGAACUACAGAAAUGUAGUUGACGAGCGGGAGGUUUAUCGAAUUUUCAGCGGAUGCCUCCAAA [G38C A39G G59A] | < 1e-05 s⁻¹
AUAAAAGCGCCAGAAUUACAGAAAUGUAGUUGACGCGGAGGAGGUUUAUCGCAUUUUCGGAGGAUGCCUCCAAA [C16U A36C A52C C61A] | < 1e-05 s⁻¹
AUAAAAGCGCCAGAACUACAGAAAUGUAGUUGAAGAGGAGAAGGUUUAUGGAAUUUUCGGCGGAUGCCUCCAAA [C34A G41A C50G] | < 1e-05 s⁻¹
AUAAAAGCGCCAGAACUACAGAAAUGUAGUUGACGAGGAGGAGGUUUAUCGCAUUUUCGGCGGAUGCCGCCAAA [A52C U69G] | 9.19e-05 ± 4.2e-05 s⁻¹

Variant | self-cleavage kobs at 2500 uM GlcN6P
AUAAAAGCGCCAGAACUACAGAAAUGUAGUUGACGAGGAGGAGGUUUUUCGAAUUUUCGCAGGAUGCCUCCAAA [A48U G60C C61A] | < 1e-05 s⁻¹
AUAAAAGCGGCAGAACUACAGAAAUGUAGUUGACUAGAAGUAGGUUUAUCGAAUUUUCGGCGGAUGCCUCCAAA [C10G G35U G38A G41U] | < 1e-05 s⁻¹
AUAAAAACGCCAGAACUACAGAAAUGUAGUUGACGAGGCGGAGGUUUAUCGAAUUUUCGGCGAAUGCCUCCAAA [G7A A39C G63A] | < 1e-05 s⁻¹
AUAAAAGCGCCAGAACUACAGAAAUGUAGUUGACGAAGCGGAGGUUUAUCGAAUUUUCCGCGGAUGCCUCCAAA [G37A A39C G59C] | < 1e-05 s⁻¹
AUAAAAGCGCCAGAACUACAGAAAUGUAGUUGACGAGAAGGAGGUUUAUCGAAUUUUAGGCGGAUGCCUGCAAA [G38A C58A C70G] | 6.46e-05 ± 1.7e-05 s⁻¹
AUAAAAGCGCCAGAGCUACAGAAAUGUAGUUGACGAGGAGGAGGUUUAUCGAAUUUUUGGCGGAUGCCUUCAAA [A15G C58U C70U] | 3.63e-05 ± 1.4e-05 s⁻¹
AUAAAAGCGCCAGAACUACAGAAAUGUAGUUGGCGAGGAGGAGGUUUAUCGACUUUUCGGCGGAAGUCUCCAAA [A33G A53C U65A C67U] | < 1e-05 s⁻¹
AUAAAAGCGCCAGAACUACAGAAAUGUAGUUGACGAGGAGGAGGUGUGUCGAAUUUGCGGCUGAUGCCUCCAAA [U46G A48G U57G G62U] | < 1e-05 s⁻¹
AUAAAAGCGCCAGAACUACAGAAAUGUAGUUGACGAGAAGGGGGUUUAUCGAAUUUUCGGCGGAUGCGUCCAAA [G38A A42G C68G] | < 1e-05 s⁻¹
AUAAAAGCGCCAGAACUACAGAAAUGUAGUUAACGAGGCGGAGGUUUAUUGAAUUUUCGGCGGAUGCCUCCAAA [G32A A39C C50U] | < 1e-05 s⁻¹
AUAAAAGCGCCAGAACUACAGAAAUGUAGUUGACGAGGAUGAGGUUGAUCCAAUUUUCGGCGGAAGCCUCCAAA [G40U U47G G51C U65A] | < 1e-05 s⁻¹
AUAAAAGCGCCUGAAAUACAGAAAUGUAGUUGACGAGGAGGUGGUUUAUCUAAUUUUCGGCGGAUGCCUCCAAA [A12U C16A A42U G51U] | < 1e-05 s⁻¹
AUAAAAGCGCCAGAACUACAGAAAUGUAGUUAACGAGGAGGAGGUUUAUCGAAUUUUCGGCGGAUGCGUGCAAA [G32A C68G C70G] | < 1e-05 s⁻¹
AUAAAUGCGCCAGAACUACAGAAAUGUAGUUGACGAGAAGGAGGUUUAUGGAAUUUUCGGCGGAUGUCUCCAAA [A6U G38A C50G C67U] | 6.17e-05 ± 1.7e-05 s⁻¹
AUAAAAGCGUCAGAAGUACAGAAAUGUAGUUGAGGAGGGGGAGGUUUAUCGAAUUUUCGGCGGAUGCCUCCAAA [C10U C16G C34G A39G] | < 1e-05 s⁻¹
AUAAAAGCGCCAGAACUACAGAAAUGUAGUUGACGAGGACGAGGUUGAUCAAAUUUUCGGCGGAUGCCUCCAAA [G40C U47G G51A] | < 1e-05 s⁻¹

Variants of: B1
Experiment: self-cleavage kobs at 10000 uM GlcN6P; higher = faster cleavage; RNA array
Details: with glucosamine-6-phosphate
Outline: as §1

Variant | self-cleavage kobs at 10000 uM GlcN6P
AUAAAAGCGCCAGAACUACAGAAAUGUAGUUGACGUGGAGGGGGUUUAGCGAAUUCUCGGCGGAUUCCUCUAAA [A36U A42G U49G U56C G66U C71U] | < 1e-05 s⁻¹
AUAAAAGCGCCAGAAUUACAGAAAUGUAAUUGACGAGGAGUAGGUUUAUCUAAUUUUCGGCGGAUGCCUCCAAA [C16U G29A G41U G51U] | < 1e-05 s⁻¹
AUAAAAGGGCAAGAACUACAGAAAUGUAGUUGCCGAGGAGGAGGUUUAUCGAAUUUUCGGCGGAUGCCUCCAAA [C8G C11A A33C] | < 1e-05 s⁻¹
AUAAAAGCGCCAGAACUACAGAAAUGUAGUUGACGAGGAUGAGGUUGAUCCAAUUUUCGGCGGAAGCCUCCAAA [G40U U47G G51C U65A] | < 1e-05 s⁻¹

— the supplement of paper PMC7125110
